{
  "source": "the supplement of paper PMC12042874",
  "note": "± gives the uncertainty stated by the source.",
  "data": [
    {"assay": "amyloid nucleation score (Sup35N fusion, yeast selection) (log enrichment); library NNK1; higher = more nucleation; inactive = no reads after selection", "outline": "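Sup35N fusions to peptides of 20 random codons were expressed in psi-negative yeast, induced 24 hours with 100 μM copper sulfate, and grown 7 days at 30°C on medium lacking adenine and uracil. Input and output plasmid inserts were sequenced by Illumina. The nucleation score is the DiMSum log enrichment of output over input reads, centred on the mode score of non-aggregating sequences. Sequences with under 100 input reads were excluded.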", "values": [
      {"substance": "RWLDYYADNARHVSQTLRRR", "amyloid nucleation score": "-0.575 ± 0.64"},
      {"substance": "DFHTITGMANFTLSLCYSHK", "amyloid nucleation score": "-0.945 ± 1.4"},
      {"substance": "RRSESGKCFDLLSSSLSVIN", "amyloid nucleation score": "-0.786 ± 0.73"},
      {"substance": "TFYMTSSLST", "amyloid nucleation score": "0.028 ± 0.67"},
      {"substance": "IAVKQFSRPPVFYIYSSLEC", "amyloid nucleation score": "0.642 ± 0.62"},
      {"substance": "PNAVNIIYDCAQLLFMRTMR", "amyloid nucleation score": "-0.188 ± 0.65"},
      {"substance": "RVLVDPRSSFVYSTRFDDD", "amyloid nucleation score": "0.2 ± 0.45"},
      {"substance": "YLFRLVTVFNVVKATLVVTV", "amyloid nucleation score": "-0.289 ± 0.92"},
      {"substance": "TLNIVHLYME", "amyloid nucleation score": "4.5 ± 0.065"},
      {"substance": "VTLQQRLCSFYMLIVEFASS", "amyloid nucleation score": "0.045 ± 0.43"},
      {"substance": "VRHLRR", "amyloid nucleation score": "-0.496 ± 0.55"},
      {"substance": "AGCDNMIYMSTWVKWESN", "amyloid nucleation score": "0.197 ± 0.31"},
      {"substance": "YSVPVCGDMLTGWYCNKYKY", "amyloid nucleation score": "inactive"},
      {"substance": "LHLPYGCTASAICQFECSGW", "amyloid nucleation score": "3 ± 0.15"},
      {"substance": "FVSGVFGYRMYDPRRVWLSL", "amyloid nucleation score": "-0.178 ± 0.7"},
      {"substance": "VIVWGSRSFLGC", "amyloid nucleation score": "3.49 ± 0.1"},
      {"substance": "QSYTLYMMSLFKS", "amyloid nucleation score": "-0.34 ± 0.55"},
      {"substance": "ERWIVVPDESTTRTTHRHIN", "amyloid nucleation score": "0.147 ± 1.6"},
      {"substance": "RSMWICLWACYNLMVIRWPG", "amyloid nucleation score": "-0.446 ± 0.54"},
      {"substance": "KDIYKRFFWYYSKKVCGYGA", "amyloid nucleation score": "-0.172 ± 0.25"},
      {"substance": "EVCWNSCMVADSVSVISNPA", "amyloid nucleation score": "-0.231 ± 0.27"},
      {"substance": "EICMRPY", "amyloid nucleation score": "-0.081 ± 1.1"},
      {"substance": "GVWLVSDRKVADVRSNYCFD", "amyloid nucleation score": "-2.18 ± 2.7"},
      {"substance": "VARHISAVSAWGACYRWCFR", "amyloid nucleation score": "0.706 ± 0.51"},
      {"substance": "GVTLYRRGIFGMSL", "amyloid nucleation score": "0.338 ± 0.66"},
      {"substance": "KHSPSDYPERLHHNFYIERI", "amyloid nucleation score": "inactive"},
      {"substance": "TMCCTLDARRLLLSMADFYC", "amyloid nucleation score": "5.42 ± 0.072"},
      {"substance": "RFLVFPRFCCTRNKPRSETL", "amyloid nucleation score": "0.616 ± 1.2"},
      {"substance": "LNICCEEYQDRYTTDNFLLL", "amyloid nucleation score": "0.583 ± 0.57"},
      {"substance": "WFHSQVTQNYSVWLLSTNYS", "amyloid nucleation score": "-0.091 ± 0.56"},
      {"substance": "RMAHVKHFL", "amyloid nucleation score": "4.52 ± 0.082"},
      {"substance": "SLPVLCASRYHLHYRMGFSG", "amyloid nucleation score": "1 ± 0.69"},
      {"substance": "KCYTMHWPGS", "amyloid nucleation score": "-1.07 ± 1.7"},
      {"substance": "FSSWQGMGKQYWPERIRCAD", "amyloid nucleation score": "0.425 ± 0.46"},
      {"substance": "LGSMSPVGLTKYLGDGEEVV", "amyloid nucleation score": "-0.036 ± 0.55"},
      {"substance": "SSLGNEFIFDSFGNK", "amyloid nucleation score": "-0.772 ± 0.73"},
      {"substance": "FLTLCVLNRLWH", "amyloid nucleation score": "4.85 ± 0.11"},
      {"substance": "TSFYTGFWCPA", "amyloid nucleation score": "-0.232 ± 0.57"},
      {"substance": "SRCLMRMTAPQVQEGACAVC", "amyloid nucleation score": "-0.268 ± 0.38"},
      {"substance": "LCFGGRSWSCFVKVKHLFAC", "amyloid nucleation score": "1.68 ± 0.51"},
      {"substance": "LLKENWFNCSLWHDIVGISM", "amyloid nucleation score": "-0.596 ± 0.59"},
      {"substance": "FCNLYGKQTYLSGFGIHCVV", "amyloid nucleation score": "0.127 ± 0.23"},
      {"substance": "YMHSGGQGLLCIQVSYTMSF", "amyloid nucleation score": "-0.503 ± 0.83"},
      {"substance": "VIRCRKFRTVWILFLAISLV", "amyloid nucleation score": "inactive"},
      {"substance": "KGNRGQ", "amyloid nucleation score": "inactive"},
      {"substance": "MDSFVITSFSYNTSLTMRIL", "amyloid nucleation score": "1.4 ± 0.42"},
      {"substance": "PGCIICRVMTEANSRCLVRA", "amyloid nucleation score": "0.141 ± 1.2"},
      {"substance": "HPLVGQELKDWNNELYVHVL", "amyloid nucleation score": "0.534 ± 0.79"},
      {"substance": "QDIARPRYIPSNNRKKTREP", "amyloid nucleation score": "-1.35 ± 1.9"},
      {"substance": "SLYMT", "amyloid nucleation score": "0.192 ± 0.34"},
      {"substance": "SWGTGVIPMVRNSLRECTEL", "amyloid nucleation score": "-0.388 ± 0.98"},
      {"substance": "LSMRIQAQMIVAWPTKHPIL", "amyloid nucleation score": "4.99 ± 0.12"},
      {"substance": "IMFTWWEYRLRSLEV", "amyloid nucleation score": "-0.334 ± 0.48"},
      {"substance": "HINFIYRLRSFLQSCKNFSS", "amyloid nucleation score": "-1.23 ± 2.1"},
      {"substance": "LDTGVMMEIKICIHYRDCYD", "amyloid nucleation score": "1.84 ± 0.21"},
      {"substance": "LAQSGIDIYLRKGMDARKMR", "amyloid nucleation score": "-0.516 ± 0.32"},
      {"substance": "GLSIQ", "amyloid nucleation score": "0.288 ± 0.44"},
      {"substance": "PLARRVSAHILVRMNYRNFM", "amyloid nucleation score": "-0.048 ± 0.37"},
      {"substance": "LDSARMGLFITGMV", "amyloid nucleation score": "-1.06 ± 0.87"},
      {"substance": "HMSGFWM", "amyloid nucleation score": "-0.856 ± 1.7"},
      {"substance": "RFANMLNVFENV", "amyloid nucleation score": "-0.179 ± 0.26"},
      {"substance": "CCDVHGCVGNMLSFTGILLF", "amyloid nucleation score": "3.54 ± 0.076"},
      {"substance": "LRITNAPKLVYVSAQEVNSQ", "amyloid nucleation score": "1.47 ± 0.25"},
      {"substance": "FKLWQVFRKSSMFQRGWGIG", "amyloid nucleation score": "0.462 ± 0.78"}
    ]}
  ]
}
